This passage reports MFI, binding result and EC50 results from patent US20250002577A1 (ONCORESPONSE, published 2025).

Assay [1] concerns the target T1, human LILRA5 on HEK293-6E cells (human, UniProt A6NI73 42-299).
T1 construct: whole, on cells; also called hLILRA5
In words: flow cytometry, HEK293-6E transfectants. As to the method: (§1) To determine that the parent chimera anti LILRB2/1 antibody specifically binds to LILRB2 and LILRB1 and not to other LILRB and LILRA family members, a cross-reactivity assay was performed. Cross-reactivity was assessed by antibody binding to transiently transfected HEK293-6E cells by flow cytometry. Binding was evaluated to HEK293-6E cells transiently transfected with human LILRB-1, -2, -3, -4, and 5 plasmids (Origene, Nos. RC219949, RC217935, RC211228, RC220932, RC206516) or to cells transiently transfected with human LILRA-1, -2, -4, -5, and -6 plasmids (Origene, Nos. RC210808, RC205626, RC220452, RC212310 RC212965). […] At a concentration of 1 μg/mL, no binding of B21A1 or the humanized variants to LILRB-3, -4, or -5 was observed (Table 7). Additionally, no binding to LILRA-1, -2, -4, -5, or -6 was observed, confirming the specificity of B21A1 and its humanized variants to LILRB1 and LILRB2 (Table 8).

The target in assay [2] is T2, human LILRB4 on HEK293-6E cells (human, UniProt Q8NHJ6 22-448).
T2 construct: whole, on cells; also called hLILRB4
In words: flow cytometry, HEK293-6E transfectants. As to the method:
as §1
(In general: In flow cytometry, cells or beads pass a laser one at a time.)

Assay [3] concerns the target T3, human LILRA2 on HEK293-6E cells (human, UniProt Q8N149 24-483).
T3 construct: whole, on cells; also called hLILRA2
In words: flow cytometry, HEK293-6E transfectants. As to the method:
as §1

The next assay addresses T4, human LILRB1 on cells (human, UniProt Q8NHL6 24-650).
T4 construct: whole, on cells; also called hLILRB1; LILRB1-expressing 721.221 cells
Kind of assay: flow cytometry, HEK293-6E transfectants. As to the method: as §1

Assay [4] concerns the target T5, human LILRB3 on HEK293-6E cells (human, UniProt O75022 24-631).
T5 construct: whole, on cells; also called hLILRB3
Kind of assay: flow cytometry, HEK293-6E transfectants. As to the method:
as §1

Assay [5] has as its target T6, human LILRA4 on HEK293-6E cells (human, UniProt P59901 24-499).
T6 construct: whole, on cells; also called hLILRA4
In words: flow cytometry, HEK293-6E transfectants. Here is the method: as §1

For assay [6], the target named is T7, human LILRB5 on HEK293-6E cells (human, UniProt O75023 24-590).
T7 construct: whole, on cells; also called hLILRB5
Kind of assay: flow cytometry, HEK293-6E transfectants. Here is the method: as §1

Assay [7] deals with T8, human LILRA1 on HEK293-6E cells (human, UniProt O75019 17-489).
T8 construct: whole, on cells; also called hLILRA1
Kind of assay: flow cytometry, HEK293-6E transfectants. Here is the method: as §1

The target of assay [8] is T9, human LILRA6 on HEK293-6E cells (human, UniProt Q6PI73 24-481).
T9 construct: whole, on cells; also called hLILRA6
Kind of assay: flow cytometry, HEK293-6E transfectants. Here is the method: as §1

Assay [9] concerns the target T10, human LILRB2 on cells (human, UniProt Q8N423 22-597).
T10 construct: whole, on cells; also called hLILRB2; LILRB2-HEK293T
Kind of assay: flow cytometry, HEK293-6E transfectants. As to the method:
as §1

The target in assay [10] is T10, human LILRB2 on cells. In words: flow cytometry, LILRB2-HEK293T cells, AF647-labelled antibody. As to the method:
While LILRB2 expression is mostly restricted to myeloid cells, LILRB1 has a broader expression on immune cell subsets, including B cells, T cells and NK cells.
Frozen cells were removed from storage in vapor phase liquid nitrogen and thawed by gentle swirling in a water bath at 37° C., then resuspended in DMEM media with 10% FBS. Cells were placed in a 15 mL conical tube and centrifuged at 300×g for 5 min, then supernatant was removed. Cells were resuspended in DMEM+10% FBS at a cell density of 2×10⁵ cells/mL in a T75 flask for culturing, and incubated at 37° C., 5% CO₂ for 3 days before passaging. Cells were passaged when the cell density reached 1×10⁶ cell/mL. On the day of the assay, cells were centrifuged, then supernatant was removed. Cells were resuspended in Blocking Buffer B (FACS Buffer containing 10% FBS and 0.5 mg/mL human IgG1 (Athens Research, No. 16-16-090707-1M)+0.05% NaN₃, 5% (w/v)) in a 15 mL conical tube, then incubated at 4° C. for 30 min. […] Cells were incubated with antibodies at 4° C. for 1 h. Cells were washed twice in FACS Buffer (PBS containing 2 mM EDTA+1% FBS+0.05% NaN₃) and then stained with for 10 min with Zombie Violet™ fixable viability dye (BioLegend, No. 423114) at RT, washed with FACS Buffer and resuspend in 75 μL of FACS Buffer for acquisition on a BD FACSymphony™ or BD FACSCanto™ II flow cytometer (BD Biosciences), as described in Example 6.

Assay [11] has as its target T11, recombinant human LILRB1-His (human, UniProt Q8NHL6 24-458).
T11 construct: Bought protein; also called LILRB1 protein
Kind of assay: MSD ELISA, coated antigen, purified IgG1. As to the method: (§2) Recombinant human and cynomolgus LILRB1 proteins (R&D Systems, No. 8989-T2-050; ACROBiosystems, No. CDJ-C52H3) and recombinant human and cynomolgus LILRB2 proteins (ACROBiosystems, No. LI2-H5220; No. L12-C52H3) were diluted in PBS to 4 μg/mL and added to a multi-array 384-well high-binding plates (MSD, No. L21XA4) at 10 μL/well and incubated at 4° C. overnight. The plates were washed several times with Wash Buffer (0.05% Tween® 20 in PBS), using a microplate washer and then blocked with 70 μL/well of 5% BSA in PBS for 1 hour (h) at room temperature (RT) with shaking at 700 rpm. After blocking, 20 μL/well of anti-LILRB2/LILRB1 antibodies or isotype control were added to the plates, and the plates were sealed and incubated for 2 h at RT with shaking at 700 rpm. After primary antibody binding, plates were washed five times with 70 μL/well of Wash Buffer (0.05% Tween® 20 in PBS) using a microplate washer. Secondary detection antibody (SULFO-TAG™-labeled goat anti-human IgG antibody (MSD, No. R32AJ-1)) was diluted to 4 μg/mL in assay diluent (1% BSA in PBS) and 10 μL/well was added to plates and incubated at RT protected from light for 1 h, with shaking at 700 rpm. Following incubation, plates were washed five times with Wash Buffer, using a microplate washer. After removal of the final wash, 35 μL/well of MSD Gold Read Buffer B (MSD, No. R60AM-4) was added to all wells using a Multidrop combo washer/dispenser, and plates were read using MESO Sector 600MM instrument (MSD) within 5 minutes (min) after addition of Read Buffer. Signals as counts per minute (cpm) were recorded. EC₅₀ values were calculated using GraphPad Prism based on log concentration of the primary antibodies versus cpm values.
Background: An ELISA detects its analyte on a solid surface through an enzyme-linked reagent.

Assay [12] concerns the target T12, recombinant human LILRB2-His (human, UniProt Q8N423 22-461, limits assumed).
T12 construct: Bought protein; also called LILRB2 protein
Kind of assay: MSD ELISA, coated antigen, purified IgG1. As to the method: as §2

T11 sequence (Q8NHL6 24-458 limits assumed): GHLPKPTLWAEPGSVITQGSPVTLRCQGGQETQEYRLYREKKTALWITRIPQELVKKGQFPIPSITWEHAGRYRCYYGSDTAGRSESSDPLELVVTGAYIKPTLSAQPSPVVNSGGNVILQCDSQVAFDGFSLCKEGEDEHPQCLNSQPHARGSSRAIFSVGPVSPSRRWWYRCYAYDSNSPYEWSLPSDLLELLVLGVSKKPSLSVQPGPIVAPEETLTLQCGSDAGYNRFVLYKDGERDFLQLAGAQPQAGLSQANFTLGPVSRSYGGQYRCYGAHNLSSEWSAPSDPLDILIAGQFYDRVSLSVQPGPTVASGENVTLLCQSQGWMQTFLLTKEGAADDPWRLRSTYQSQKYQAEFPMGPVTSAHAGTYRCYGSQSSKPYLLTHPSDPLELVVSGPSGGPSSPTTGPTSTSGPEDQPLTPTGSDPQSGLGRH
T3 sequence (Q8N149 24-483): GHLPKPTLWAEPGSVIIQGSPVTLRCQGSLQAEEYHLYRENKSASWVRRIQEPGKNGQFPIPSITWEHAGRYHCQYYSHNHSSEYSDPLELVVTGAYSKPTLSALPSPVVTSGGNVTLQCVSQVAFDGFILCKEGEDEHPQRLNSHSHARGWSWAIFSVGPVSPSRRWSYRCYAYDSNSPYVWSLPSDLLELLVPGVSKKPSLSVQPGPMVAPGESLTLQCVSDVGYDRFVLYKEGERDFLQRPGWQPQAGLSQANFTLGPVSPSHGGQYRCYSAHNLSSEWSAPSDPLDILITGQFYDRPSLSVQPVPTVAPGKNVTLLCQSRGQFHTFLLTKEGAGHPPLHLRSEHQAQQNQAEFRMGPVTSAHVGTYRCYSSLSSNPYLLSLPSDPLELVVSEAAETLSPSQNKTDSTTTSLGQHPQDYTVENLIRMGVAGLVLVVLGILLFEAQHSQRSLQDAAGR
T5 sequence (O75022 24-631): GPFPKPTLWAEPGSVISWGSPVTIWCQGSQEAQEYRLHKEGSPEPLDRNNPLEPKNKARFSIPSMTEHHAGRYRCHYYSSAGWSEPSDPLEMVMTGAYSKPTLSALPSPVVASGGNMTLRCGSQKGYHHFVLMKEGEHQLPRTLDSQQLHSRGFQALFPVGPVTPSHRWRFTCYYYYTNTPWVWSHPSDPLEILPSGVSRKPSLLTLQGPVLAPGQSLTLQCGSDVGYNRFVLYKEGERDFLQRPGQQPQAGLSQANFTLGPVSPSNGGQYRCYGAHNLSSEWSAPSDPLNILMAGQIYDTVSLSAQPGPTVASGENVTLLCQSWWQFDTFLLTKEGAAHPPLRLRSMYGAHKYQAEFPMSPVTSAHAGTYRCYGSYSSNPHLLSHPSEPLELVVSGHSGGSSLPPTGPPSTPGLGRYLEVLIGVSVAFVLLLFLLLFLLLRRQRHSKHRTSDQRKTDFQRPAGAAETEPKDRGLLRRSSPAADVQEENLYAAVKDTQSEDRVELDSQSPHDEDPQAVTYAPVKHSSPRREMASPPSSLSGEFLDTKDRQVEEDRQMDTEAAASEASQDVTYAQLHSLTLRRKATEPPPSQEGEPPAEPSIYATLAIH
T7 sequence (O75023 24-590): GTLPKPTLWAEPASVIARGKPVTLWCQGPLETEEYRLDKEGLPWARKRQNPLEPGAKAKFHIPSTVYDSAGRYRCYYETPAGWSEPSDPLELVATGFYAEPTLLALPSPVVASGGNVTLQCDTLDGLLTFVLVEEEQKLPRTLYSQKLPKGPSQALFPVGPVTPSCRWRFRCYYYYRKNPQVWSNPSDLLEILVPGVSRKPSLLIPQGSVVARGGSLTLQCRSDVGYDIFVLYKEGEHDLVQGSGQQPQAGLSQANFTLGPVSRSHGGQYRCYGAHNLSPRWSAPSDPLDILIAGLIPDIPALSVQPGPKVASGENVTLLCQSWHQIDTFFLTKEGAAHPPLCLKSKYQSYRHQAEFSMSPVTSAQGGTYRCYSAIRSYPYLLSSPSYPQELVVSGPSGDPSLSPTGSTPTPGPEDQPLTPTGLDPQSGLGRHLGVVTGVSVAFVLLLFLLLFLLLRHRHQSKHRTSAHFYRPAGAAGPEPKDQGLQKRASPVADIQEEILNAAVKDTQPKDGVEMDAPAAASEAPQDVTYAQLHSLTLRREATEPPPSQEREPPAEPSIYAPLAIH
T10 sequence (Q8N423 22-597): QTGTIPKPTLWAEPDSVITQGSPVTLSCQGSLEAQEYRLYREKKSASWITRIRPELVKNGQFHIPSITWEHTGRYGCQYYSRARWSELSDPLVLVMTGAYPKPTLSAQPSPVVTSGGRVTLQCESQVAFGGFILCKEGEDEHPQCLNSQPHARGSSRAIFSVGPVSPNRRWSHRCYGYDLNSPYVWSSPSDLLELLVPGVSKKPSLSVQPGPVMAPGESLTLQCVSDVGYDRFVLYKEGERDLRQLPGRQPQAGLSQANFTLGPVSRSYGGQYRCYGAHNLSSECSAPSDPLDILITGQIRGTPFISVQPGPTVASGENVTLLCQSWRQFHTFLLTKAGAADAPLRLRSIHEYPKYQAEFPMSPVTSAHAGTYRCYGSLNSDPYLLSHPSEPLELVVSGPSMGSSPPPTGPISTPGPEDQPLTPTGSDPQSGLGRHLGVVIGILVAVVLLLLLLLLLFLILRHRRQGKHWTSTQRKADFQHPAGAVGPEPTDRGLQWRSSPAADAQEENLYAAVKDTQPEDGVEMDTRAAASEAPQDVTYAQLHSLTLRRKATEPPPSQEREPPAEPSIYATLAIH
T4 sequence (Q8NHL6 24-650): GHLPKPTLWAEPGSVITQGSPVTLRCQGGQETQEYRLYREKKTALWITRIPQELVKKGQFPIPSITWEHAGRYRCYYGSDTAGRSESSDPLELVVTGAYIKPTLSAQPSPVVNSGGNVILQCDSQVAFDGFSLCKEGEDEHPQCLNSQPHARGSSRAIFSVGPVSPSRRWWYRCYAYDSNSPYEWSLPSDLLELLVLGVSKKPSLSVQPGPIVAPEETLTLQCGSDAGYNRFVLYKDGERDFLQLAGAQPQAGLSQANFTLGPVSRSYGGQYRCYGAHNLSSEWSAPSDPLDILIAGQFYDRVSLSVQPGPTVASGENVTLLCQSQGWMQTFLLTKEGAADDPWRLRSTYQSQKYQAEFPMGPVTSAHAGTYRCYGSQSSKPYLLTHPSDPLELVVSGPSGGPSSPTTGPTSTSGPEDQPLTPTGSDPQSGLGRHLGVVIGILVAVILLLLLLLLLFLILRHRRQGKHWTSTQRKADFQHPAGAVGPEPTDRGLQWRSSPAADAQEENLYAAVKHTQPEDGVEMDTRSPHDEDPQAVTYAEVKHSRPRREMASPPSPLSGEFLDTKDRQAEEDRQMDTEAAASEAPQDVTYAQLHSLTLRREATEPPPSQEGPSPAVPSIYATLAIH
T6 sequence (P59901 24-499): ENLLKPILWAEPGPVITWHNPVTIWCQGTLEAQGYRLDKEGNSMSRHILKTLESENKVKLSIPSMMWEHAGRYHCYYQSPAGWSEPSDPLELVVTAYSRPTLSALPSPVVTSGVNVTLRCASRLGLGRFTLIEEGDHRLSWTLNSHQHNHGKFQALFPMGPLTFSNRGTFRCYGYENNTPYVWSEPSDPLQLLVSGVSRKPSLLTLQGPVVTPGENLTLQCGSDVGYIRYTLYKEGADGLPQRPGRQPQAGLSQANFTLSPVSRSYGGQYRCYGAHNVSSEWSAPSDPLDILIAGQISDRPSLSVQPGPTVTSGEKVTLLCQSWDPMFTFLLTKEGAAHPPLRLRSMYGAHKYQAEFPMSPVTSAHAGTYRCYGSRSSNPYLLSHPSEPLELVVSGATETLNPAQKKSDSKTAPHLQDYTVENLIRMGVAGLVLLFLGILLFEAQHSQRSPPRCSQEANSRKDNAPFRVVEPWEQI
T1 sequence (A6NI73 42-299): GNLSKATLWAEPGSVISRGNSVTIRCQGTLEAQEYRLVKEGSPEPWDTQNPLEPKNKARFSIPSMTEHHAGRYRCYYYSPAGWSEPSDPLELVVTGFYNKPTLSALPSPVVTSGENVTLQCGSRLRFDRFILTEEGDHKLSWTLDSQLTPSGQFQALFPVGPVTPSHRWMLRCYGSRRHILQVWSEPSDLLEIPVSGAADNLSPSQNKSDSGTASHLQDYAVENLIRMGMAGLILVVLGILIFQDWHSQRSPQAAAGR
T8 sequence (O75019 17-489): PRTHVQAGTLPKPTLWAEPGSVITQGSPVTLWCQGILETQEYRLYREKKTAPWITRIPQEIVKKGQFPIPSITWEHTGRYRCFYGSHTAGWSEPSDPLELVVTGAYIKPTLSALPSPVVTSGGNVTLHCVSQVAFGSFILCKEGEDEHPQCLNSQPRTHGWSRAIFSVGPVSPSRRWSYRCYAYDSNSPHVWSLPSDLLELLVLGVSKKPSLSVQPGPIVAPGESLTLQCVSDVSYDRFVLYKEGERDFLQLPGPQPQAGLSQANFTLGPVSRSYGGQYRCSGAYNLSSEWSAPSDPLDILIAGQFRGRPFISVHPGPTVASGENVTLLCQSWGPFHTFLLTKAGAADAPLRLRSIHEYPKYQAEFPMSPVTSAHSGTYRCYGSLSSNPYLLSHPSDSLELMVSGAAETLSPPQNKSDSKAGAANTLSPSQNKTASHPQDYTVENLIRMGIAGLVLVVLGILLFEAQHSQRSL
T12 sequence (Q8N423 22-461 limits assumed): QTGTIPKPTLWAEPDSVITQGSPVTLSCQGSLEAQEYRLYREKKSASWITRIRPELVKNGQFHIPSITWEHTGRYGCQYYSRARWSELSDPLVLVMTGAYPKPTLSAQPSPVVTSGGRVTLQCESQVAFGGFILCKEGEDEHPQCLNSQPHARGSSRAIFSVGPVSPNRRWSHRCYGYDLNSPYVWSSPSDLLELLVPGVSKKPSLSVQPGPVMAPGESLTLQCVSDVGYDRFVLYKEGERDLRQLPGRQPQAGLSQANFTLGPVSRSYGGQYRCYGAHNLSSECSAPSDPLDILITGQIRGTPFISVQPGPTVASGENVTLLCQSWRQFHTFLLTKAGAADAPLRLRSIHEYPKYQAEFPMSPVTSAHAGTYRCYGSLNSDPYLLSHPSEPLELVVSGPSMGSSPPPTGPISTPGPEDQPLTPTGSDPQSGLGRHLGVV

B1: B21H1-23 (antibody, human IgG1, kappa)
heavy: not shown
light: DIVMTQSPSSVSASVGDRVTITCQASGNIYSFLAWYQQKPGKAPKLLIYTASNLETGVPSRFSGSGSGTDFTLTISSLQPEDFATYYCLGGLYSSDVSYAFGGGTKVVIKRTVAAPSVFIFPPSDEQLKSGTASVVCLLNNFYPREAKVQWKVDNALQSGNSQESVTEQDSKDSTYSLSSTLTLSKADYEKHKVYACEVTHQGLSSPVTKSFNRGEC
notes: humanized IgG1/kappa, VH2+VL3
Turning to B1, the MFI in [1] came out at 75.3 MFI; in assay [2], 30.1 MFI; in assay [3], 27.5 MFI; with human LILRB1 on cells, 1060 MFI; in assay [4], 96.2 MFI; in [5], 136 MFI. Moreover, the MFI in assay [6] stood at 92 MFI; in assay [7], 210 MFI; in [8], 140 MFI; with human LILRB2 on cells [9], 5430 MFI. The binding result in assay [1], in [2], in assay [3], in assay [4], in assay [5] and in assay [6] was “no binding (tested: 1 µg/mL)” in each case. Moreover, the binding result in assay [7] and in [8] was “no binding (tested: 1 µg/mL)” throughout. The EC50 (usually the concentration giving half of the maximal effect) stood at 1.63 ng/mL with human LILRB2 on cells [10], 8.64 ng/mL in [11] and 30.7 ng/mL in assay [12].

B2: B21H1-13 (antibody, human IgG1, kappa)
heavy: not shown
light: DIVMTQSPSSVSASVGDRVTITCQASGNIYSFLAWYQQKPGKAPKLLIYTASNLETGVPSRFSGSGSGTDFTLTISSLQPEDFATYYCLGGLYSSDVSYAFGGGTKVVIKRTVAAPSVFIFPPSDEQLKSGTASVVCLLNNFYPREAKVQWKVDNALQSGNSQESVTEQDSKDSTYSLSSTLTLSKADYEKHKVYACEVTHQGLSSPVTKSFNRGEC
notes: humanized IgG1/kappa, VH1+VL3
With B2, the MFI was 75.7 MFI in [1]; 29.1 MFI in [2]; 25.8 MFI in assay [3]; 1000 MFI with human LILRB1 on cells; 84.7 MFI in [4]; 130 MFI in [5]. In addition, the MFI in assay [6] was found to be 89.8 MFI; in [7] it was 201 MFI; in [8], 142 MFI; in the assay with human LILRB2 on cells [9] it was 5370 MFI. The binding result in assay [1], in assay [2], in assay [3], in assay [4], in [5] and in assay [6] was “no binding (tested: 1 µg/mL)” each time. Further, the binding result in assay [7] and in assay [8] was “no binding (tested: 1 µg/mL)” throughout. Moreover, the EC50 is 2.23 ng/mL with human LILRB2 on cells [10], 5.45 ng/mL in [11] and 20.3 ng/mL in assay [12].

B3: B21H1-22 (antibody, human IgG1, kappa)
heavy: not shown
light: DIQMTQSPSSLSASVGDRVTITCQASGNIYSFLAWYQQKPGKVPKLLIYTASNLETGVPSRFSGSGSGTDYTLTISSLQSEDAATYYCLGGLYSSDVSYAFGGGTKVVIKRTVAAPSVFIFPPSDEQLKSGTASVVCLLNNFYPREAKVQWKVDNALQSGNSQESVTEQDSKDSTYSLSSTLTLSKADYEKHKVYACEVTHQGLSSPVTKSFNRGEC
notes: humanized IgG1/kappa, VH2+VL2
B3: the MFI turned out to be 76.7 MFI in [1]; 29.9 MFI in assay [2]; 27.6 MFI in assay [3]; 914 MFI in the assay with human LILRB1 on cells; 90.1 MFI in [4]; 132 MFI in [5]. In addition, the MFI in assay [6] worked out at 91.4 MFI; in [7], 295 MFI; in assay [8], 140 MFI; in the assay with human LILRB2 on cells [9] it was 5590 MFI. In addition, the binding result in assay [1], in assay [2], in [3], in [4], in assay [5] and in [6] was “no binding (tested: 1 µg/mL)” each time. Moreover, the binding result in assay [7] and in assay [8] was “no binding (tested: 1 µg/mL)” throughout. Also, the EC50 stood at 1.07 ng/mL in the assay with human LILRB2 on cells [10], 8.18 ng/mL in [11] and 25.3 ng/mL in [12].
